{"source": "paper PMC3102710", "target": "SARS-CoV nsp10 (SARS-CoV Frankfurt-1)", "test": "pull-down"}
{"substance": "SARS-CoV nsp16 (enzyme)", "values": [{"measurement": "% associated", "result": 100, "unit": "%"}]}
